Test results reported in publication doi:10.1101/591909.

Target: AP2M (UniProt P84091)
Assay: cell-free ELISA, antibody-captured AP2M, biotinylated peptide
Details: reference: unphosphorylated control peptide; sites Y816

TRKB (C-terminal peptide) C-terminus, last 26 aa (from UniProt Q63604) pY816 peptide
binding against the reference: stronger
